Experimental data as given in patent US20020165140A1 (ANGIOGENETICS SWEDEN, published 2002).

Experiments:
GAL4 DBD = target: T1, GAL4 DBD (UniProt P04386 1-147, limits assumed); test: coimmunoprecipitation of 35S-IPAS with anti-GAL4 antibody, in vitro translated proteins
T1 construct: Control in the coprecipitation assay

GAL4-HIF-1α/526-826 = target: T2, GAL4-HIF-1α/526-826 (UniProt P04386 1-147; Q16665 526-826); test: as above
T2 construct: In vitro translated

B1: Inhibitory PAS Domain Protein (IPAS), in vitro translated (other)
chain: MALGLQRVRSNTELRKEKSRDAARSRRSQETEVLYQLAHTLPFARGVSAHLDKASIMRLTISYLRMHRLCAAGGKRGRATGRLLPEGPGGFRHGTHRRGRHGLPVGKCQQAPGPQSVDLCSSSLIHNPTPGTNFSLELIGHSIFDFIHPCDQEELQDALTPRPNLSKKKLEAPTERHFSLRMKSTLTSRGRTLNLKAATWKVLHCSGHMRAYKPPAQTSPAGSPRSEPPLQCLVLICEAIPQLPFHDGATLGLPQEKTPISTLFTPLWKALLCLVKRWPVQVLQGKGTESSLPSWVLWALNRKNCPG
modifications: 35S-labeled methionine (in the coprecipitation assay)
notes: Polypeptide of 307 amino acids; generated by in vitro translation in rabbit reticulocyte lysate; also called mouse IPAS; mIPAS
B1: no binding (GAL4 DBD); no binding (GAL4-HIF-1α/526-826).
